Measurements from patent publication US20250381305A1, “METHOD FOR TREATING A PARKINSON'S DISEASE” (SINEUGENE THERAPEUTICS CO., LTD., priority 2022, published 2025).
Entries after “also recorded” stand apart in the source; their conditions may differ.

How the values were obtained:
293 FT = test: Cell viability after stress challenge, TRIM72 point mutants; assay type: cell-based; conditions: Flag-tagged point mutants vs wildtype; oxidative stress
Procedure: For TRIM72 stable expression cell line construction, DNA fragments of the series of Flag-tagged TRIM72 mutants or domain deletion or single domain were amplified from the corresponding TRIM72 expression vector by PCR and inserted into pLJM1-EGFP lentiviral vector between BsrGI and EcoRI sites to generate the series of Flag-tagged TRIM72 mutants or domain deletion or single domain fused with EGFP in lentiviral vector.
Cell viability was assessed using CCK-8. Cells were seeded in a 96-well plate at a density of 1.5×10^3cells per well for Arsenite treatment or 7×10^3 cells per well for H2O2 treatment. Arsenite (Sigma) was added into each well at concentration of 0.125 mM, 0.25 mM or 0.5 mM, and washed the cells after 2 hours incubation at 37° C. For H2O2-treatment experiment, scAAV9 infection (estimated multiplicity of infection (MOI): 10,000 vg/cell) was done for 24 hours at 17 hours after cell seeding. Then, H2O2 was added into each well at concentration of 300 μM, and washed the cells after 1 hours incubation at 37° C. […] After another 2 hours of incubation at 37° C., the optical density (OD) value of each well was measured using a microplate reader with an excitation wavelength of 450 nm. The cell viability of 293 FT was calculated. […]
Previous study determined that TRIM72 senses changes in the oxidative environment and forms oligomer complex to complete membrane repair. […]

N2a cell line = test: CCK-8 cell viability after H2O2 treatment, expression by scAAV9 infection; assay type: cell-based; conditions: scAAV9 infection MOI 10,000 vg/cell, H2O2 300 μM, 1 hour
Procedure: Cell viability was assessed using CCK-8. Cells were seeded in a 96-well plate at a density of 1.5×10^3cells per well for Arsenite treatment or 7×10^3 cells per well for H2O2 treatment. Arsenite (Sigma) was added into each well at concentration of 0.125 mM, 0.25 mM or 0.5 mM, and washed the cells after 2 hours incubation at 37° C. For H2O2-treatment experiment, scAAV9 infection (estimated multiplicity of infection (MOI): 10,000 vg/cell) was done for 24 hours at 17 hours after cell seeding. Then, H2O2 was added into each well at concentration of 300 μM, and washed the cells after 1 hours incubation at 37° C. When the cell has been processed by Arsenite or H202. a total of 10 μL of CCK-8 solution (Yeasen) was added to each well. After another 2 hours of incubation at 37° C., the optical density (OD) value of each well was measured using a microplate reader with an excitation wavelength of 450 nm. The cell viability of 293 FT was calculated. The experiment was repeated at least three times to obtain the mean value.
To further investigate which key domains of TRIM72 protein are necessary to protect neurons, different domain-deleted TRIM72 were constructed and overexpressed in N2a cell line by scAAV9 infection (FIG. 1). CCK-8 was used to measure the cell viability after H2O2 treatment. Indeed, cell viability was decreased after H2O2 treatment (FIG. 10).
CCK-8 was used to measure the cell viability after H2O2 treatment.

Molecule | cell viability after stress challenge (protective effect of TRIM72 mutants) (293 FT) | cell viability under H2O2 stress (protective effect) (N2a cell line)
C242A: Flag-tagged TRIM72 mutant, cysteine at position 242 substituted by alanine; blocks oligomer formation (protein, UniProt Q1XH17 1-477, looked up, variant C242A, Flag tag) Tripartite motif-containing …: MSAAPGLLRQELSCPLCLQLFDAPVTAECGHSFCRACLIRVAGEPAADGTVACPCCQAPTRPQALSTNLQLSRLVEGLAQVPQGHCEEHLDPLSIYCEQDRTLVCGVCASLGSHRGHRLLPAAEAQARLKTQLPQQKMQLQEACMRKEKTVAVLEHQLVEVEETVRQFRGAVGEQLGKMRMFLAALESSLDREAERVRGDAGVALRRELSSLNSYLEQLRQMEKVLEEVADKPQTEFLMKFALVTSRLQKILSESPPPARLDIQLPVISDDFKFQVWKKMFRALMPALEELTFDPSSAHPSLVVSSSGRRVECSDQKAPPAGEDTRQFDKAVAVVAQQLLSQGEHYWEVEVGDKPRWALGVMAADASRRGRLHAVPSQGLWLLGLRDGKILEAHVEAKEPRALRTPERPPARIGLYLSFADGVLAFYDASNPDVLTPIFSFHERLPGPVYPIFDVCWHDKGKNAQPLLLVGPEQEQA | abolished the anti-stress effect of TRIM72; also recorded: blocked TRIM72 protective effect | 
C14A: Flag-tagged TRIM72 mutant, cysteine at position 14 substituted by alanine; E3 ligase inactive (protein, UniProt Q1XH17 1-477, looked up, variant C14A, Flag tag) Tripartite motif-containing …: MSAAPGLLRQELSAPLCLQLFDAPVTAECGHSFCRACLIRVAGEPAADGTVACPCCQAPTRPQALSTNLQLSRLVEGLAQVPQGHCEEHLDPLSIYCEQDRTLVCGVCASLGSHRGHRLLPAAEAQARLKTQLPQQKMQLQEACMRKEKTVAVLEHQLVEVEETVRQFRGAVGEQLGKMRMFLAALESSLDREAERVRGDAGVALRRELSSLNSYLEQLRQMEKVLEEVADKPQTEFLMKFCLVTSRLQKILSESPPPARLDIQLPVISDDFKFQVWKKMFRALMPALEELTFDPSSAHPSLVVSSSGRRVECSDQKAPPAGEDTRQFDKAVAVVAQQLLSQGEHYWEVEVGDKPRWALGVMAADASRRGRLHAVPSQGLWLLGLRDGKILEAHVEAKEPRALRTPERPPARIGLYLSFADGVLAFYDASNPDVLTPIFSFHERLPGPVYPIFDVCWHDKGKNAQPLLLVGPEQEQA | reserved equal protective effect to wildtype | 
Coiled-PRYSPRY: TRIM72 truncation with coiled-coil and PRYSPRY domains, expressed by scAAV9 (probably SEQ ID NO: 11) (protein, expressed by scAAV9; TRIM72 coiled-coil domain plus PRYSPRY domain (135-470aa)) QQKLQLQEACMRKEKSVAVLEHQLVEVEETVRQFRGAVGEQLGKMRVFLAALEGSLDREAERVRGEAGVALRRELGSLNSYLEQLRQMEKVLEEVADKPQTEFLMKYCLVTSRLQKILAESPPPARLDIQLPIISDDFKFQVWRKMFRALMPALEELTFDPSSAHPSLVVSSSGRRVECSEQKAPPAGEDPRQFDKAVAVVAHQQLSEGEHYWEVDVGDKPRWALGVIAAEAPRRGRLHAVPSQGLWLLGLREGKILEAHVEAKEPRALRSPERRPTRIGLYLSFGDGVLSFYDASDADALVPLFAFHERLPRPVYPFFDVCWHDKGKNAQPLLLV |  | sufficient to protect cells from oxidative stress
PRYSPRY single domain: TRIM72 truncation with the PRYSPRY domain only, 278aa-470aa (probably SEQ ID NO: 6) (protein, human TRIM72 PRYSPRY domain (278-470 aa)) RKMFRALMPALEELTFDPSSAHPSLVVSSSGRRVECSEQKAPPAGEDPRQFDKAVAVVAHQQLSEGEHYWEVDVGDKPRWALGVIAAEAPRRGRLHAVPSQGLWLLGLREGKILEAHVEAKEPRALRSPERRPTRIGLYLSFGDGVLSFYDASDADALVPLFAFHERLPRPVYPFFDVCWHDKGKNAQPLLLV |  | sufficient to protect cells from oxidative stress
TRIM72: full-length TRIM72 protein with Ring finger, B-box, coiled-coil and PRYSPRY domains, overexpressed by lentivirus or scAAV9 (protein, listed as Homo sapiens) MSAAPGLLHQELSCPLCLQLFDAPVTAECGHSFCRACLGRVAGEPAADGTVLCPCCQAPTRPQALSTNLQLARLVEGLAQVPQGHCEEHLDPLSIYCEQDRALVCGVCASLGSHRGHRLLPAAEAHARLKTQLPQQKLQLQEACMRKEKSVAVLEHQLVEVEETVRQFRGAVGEQLGKMRVFLAALEGSLDREAERVRGEAGVALRRELGSLNSYLEQLRQMEKVLEEVADKPQTEFLMKYCLVTSRLQKILAESPPPARLDIQLPIISDDFKFQVWRKMFRALMPALEELTFDPSSAHPSLVVSSSGRRVECSEQKAPPAGEDPRQFDKAVAVVAHQQLSEGEHYWEVDVGDKPRWALGVIAAEAPRRGRLHAVPSQGLWLLGLREGKILEAHVEAKEPRALRSPERRPTRIGLYLSFGDGVLSFYDASDADALVPLFAFHERLPRPVYPFFDVCWHDKGKNAQPLLLVGPEGAEA |  | elicit protective effects from oxidative stress
coiled-coil single domain: TRIM72 truncation with the coiled-coil domain only, 135aa-232aa (probably SEQ ID NO: 5) (protein, human TRIM72 coiled-coil domain (135-232 aa)) QQKLQLQEACMRKEKSVAVLEHQLVEVEETVRQFRGAVGEQLGKMRVFLAALEGSLDREAERVRGEAGVALRRELGSLNSYLEQLRQMEKVLEEVADK |  | not the coiled-coil single domain was sufficient to protect cells from oxidative stress
TRIM40: other TRIM protein overexpressed in N2a cell line by scAAV9 infection, as comparison (protein, UniProt Q3UWA4 1-246, looked up, full-length, other TRIM protein overexpressed in N2a cell line by scAAV9 infection, as comparison) MGSLDKDNQDICPICLDPLKEAVSTDCRHLFCRMCLTQHMDKASVSGILSCPVCRKPCSEGVLGDNYICHTHQKRVRRFCEASGHLLCEECLQSPEHQSHTELSIENAISHYKERLNRRSRKLRKDLGNLQQLKAQEKKMLQALQVDCECHRLRTDLQNQDQTKEQLKALPWHWLDQEDLPEEVAKIFSFSEAVTQLSILVSGLERMAKDLDASTLKDASDLLDRSAPQKLEGLLSRVSPAGPKLS |  | rather than TRIM40 elicit protective effects from oxidative stress
